Experimental data as given in patent publication US20040248767A1 (AUTOGEN RESEARCH, published 2004).

Key:
BSA (NEB, USA) = target: T1, BSA (NEB, USA) (UniProt P02769 25-607); assay: SPR (Biacore J), control injected over SAA on CM5 chip
T1 construct: Negative control
Procedure: (§1) The 96% pure SAA was covalently bound to the biospecific sensor surface of the Biacore J (biacore, Sweden). This surface consists of a gold-coated glass slide mounted in a plastic holder (the sensor chip). The CM5 chip (biacore, Sweden) was used for all experiments and this chip is covered with a hydrophilic matrix, consisting of carboxymethylated dextran to which the SAA was covalently bound. The tanis protein fragments were injected into the system and flowed across this chip and sensorgrams were recorded in real-time.
(§2) The interaction of the proteins is indicated by the failure of the response to return to the baseline RU value. The difference between the values post injection (points 1, 3, 5, 7) indicates a binding event between full length tanis and SAA. The difference between the injection point and the max RU indicates the affinity between the two proteins. […] These sensorgrams indicate a potentially high affinity binding with a rapid dissociation of the binding event. A series of controls have also been injected across the SAA chip, these were GST alone, BSA (NEB, USA) alone and buffer alone.

[1] = target: T2, GST alone control protein (UniProt P08515 1-218 = GST); assay: as above
T2 construct: Negative control; also called GST control protein; control GST alone protein
T2 sequence (P08515 whole entry): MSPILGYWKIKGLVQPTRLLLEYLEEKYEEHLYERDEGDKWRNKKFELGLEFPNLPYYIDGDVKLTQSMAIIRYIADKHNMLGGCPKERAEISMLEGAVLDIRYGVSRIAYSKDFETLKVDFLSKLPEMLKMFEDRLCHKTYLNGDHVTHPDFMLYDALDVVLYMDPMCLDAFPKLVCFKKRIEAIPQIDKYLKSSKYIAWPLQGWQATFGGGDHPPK
Procedure: as §1, §2

T1 sequence (P02769 25-607 limits assumed): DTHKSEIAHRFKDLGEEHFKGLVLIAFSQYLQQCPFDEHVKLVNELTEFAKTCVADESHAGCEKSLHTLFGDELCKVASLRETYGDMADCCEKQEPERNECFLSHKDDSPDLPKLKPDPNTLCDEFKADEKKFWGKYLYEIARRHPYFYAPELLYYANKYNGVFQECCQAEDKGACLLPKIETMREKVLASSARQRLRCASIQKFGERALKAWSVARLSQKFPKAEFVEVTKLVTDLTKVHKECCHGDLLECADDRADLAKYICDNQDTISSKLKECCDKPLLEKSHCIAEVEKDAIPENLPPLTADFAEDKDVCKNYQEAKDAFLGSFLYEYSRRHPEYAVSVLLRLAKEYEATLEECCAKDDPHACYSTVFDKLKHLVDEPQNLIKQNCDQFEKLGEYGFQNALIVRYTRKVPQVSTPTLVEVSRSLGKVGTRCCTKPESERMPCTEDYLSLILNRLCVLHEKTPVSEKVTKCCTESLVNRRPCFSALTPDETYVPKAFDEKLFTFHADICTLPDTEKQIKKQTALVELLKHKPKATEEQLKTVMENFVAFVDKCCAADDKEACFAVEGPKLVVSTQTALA

binding result (BSA (NEB, USA)): no binding | binding result [1]: no binding
B1: Serum amyloid A (SAA) purified from human sera / human plasma (Trace Scientific) (ligand, UniProt P0DJI8 19-122, looked up)
chain: RSFFSFLGEAFDGARDMWRAYSDMREANYIGSDKYFHARGNYDAAKRGPGGAWAAEVITDARENIQRFFGHGAEDSLADQAANEWGRSGKDPNHFRPAGLPEKY
notes: also called human plasma SAA
